Assay results as given in patent US20230018405A1.
Ends that are not written are not given here. EGFP = GFP fused N-terminally (GFP-linker-3.2iPA), EGFP per filing

B1: GFP3.2iPA1 (designed binder, not shown: large carriers)
chain: {EGFP}-GLRSRAQASNSAVDGTAGPGSRRSSWNSLGRAPSLKRR
B2: GFP3.2iPA3 (designed binder, not shown: large carriers)
chain: {EGFP}-GLRSRAQASNSAVDGTAGPGSKRRSLRLYARWQSRWRKK
B3: GFP3.2iPA4 (designed binder, not shown: large carriers)
chain: {EGFP}-GLRSRAQASNSAVDGTAGPGSRGRASELEPALGSRRKKKMSPP
B4: GFP3.2NP (designed binder, not shown: large carriers)
chain: GLRSRAQASNSAVDGTAGPGSPAAPVRASPASPGAPGREEQ
B5: GFP3.2iPA2 (designed binder, not shown: large carriers)
chain: {EGFP}-GLRSRAQASNSAVDGTAGPGSRRREEKRLRRLERRRRKAQRRP

How the values were obtained:
[1] = target: human wide-type Cav3.2 (human) (UniProt O95180); assay: cell-based or functional assay
rat Cav3.2 (rat) = rat Cav3.2 (rat) (UniProt Q9EQ60); assay: cell-based or functional assay
Sequence of UniProt Q9EQ60 (Q9EQ60 whole entry): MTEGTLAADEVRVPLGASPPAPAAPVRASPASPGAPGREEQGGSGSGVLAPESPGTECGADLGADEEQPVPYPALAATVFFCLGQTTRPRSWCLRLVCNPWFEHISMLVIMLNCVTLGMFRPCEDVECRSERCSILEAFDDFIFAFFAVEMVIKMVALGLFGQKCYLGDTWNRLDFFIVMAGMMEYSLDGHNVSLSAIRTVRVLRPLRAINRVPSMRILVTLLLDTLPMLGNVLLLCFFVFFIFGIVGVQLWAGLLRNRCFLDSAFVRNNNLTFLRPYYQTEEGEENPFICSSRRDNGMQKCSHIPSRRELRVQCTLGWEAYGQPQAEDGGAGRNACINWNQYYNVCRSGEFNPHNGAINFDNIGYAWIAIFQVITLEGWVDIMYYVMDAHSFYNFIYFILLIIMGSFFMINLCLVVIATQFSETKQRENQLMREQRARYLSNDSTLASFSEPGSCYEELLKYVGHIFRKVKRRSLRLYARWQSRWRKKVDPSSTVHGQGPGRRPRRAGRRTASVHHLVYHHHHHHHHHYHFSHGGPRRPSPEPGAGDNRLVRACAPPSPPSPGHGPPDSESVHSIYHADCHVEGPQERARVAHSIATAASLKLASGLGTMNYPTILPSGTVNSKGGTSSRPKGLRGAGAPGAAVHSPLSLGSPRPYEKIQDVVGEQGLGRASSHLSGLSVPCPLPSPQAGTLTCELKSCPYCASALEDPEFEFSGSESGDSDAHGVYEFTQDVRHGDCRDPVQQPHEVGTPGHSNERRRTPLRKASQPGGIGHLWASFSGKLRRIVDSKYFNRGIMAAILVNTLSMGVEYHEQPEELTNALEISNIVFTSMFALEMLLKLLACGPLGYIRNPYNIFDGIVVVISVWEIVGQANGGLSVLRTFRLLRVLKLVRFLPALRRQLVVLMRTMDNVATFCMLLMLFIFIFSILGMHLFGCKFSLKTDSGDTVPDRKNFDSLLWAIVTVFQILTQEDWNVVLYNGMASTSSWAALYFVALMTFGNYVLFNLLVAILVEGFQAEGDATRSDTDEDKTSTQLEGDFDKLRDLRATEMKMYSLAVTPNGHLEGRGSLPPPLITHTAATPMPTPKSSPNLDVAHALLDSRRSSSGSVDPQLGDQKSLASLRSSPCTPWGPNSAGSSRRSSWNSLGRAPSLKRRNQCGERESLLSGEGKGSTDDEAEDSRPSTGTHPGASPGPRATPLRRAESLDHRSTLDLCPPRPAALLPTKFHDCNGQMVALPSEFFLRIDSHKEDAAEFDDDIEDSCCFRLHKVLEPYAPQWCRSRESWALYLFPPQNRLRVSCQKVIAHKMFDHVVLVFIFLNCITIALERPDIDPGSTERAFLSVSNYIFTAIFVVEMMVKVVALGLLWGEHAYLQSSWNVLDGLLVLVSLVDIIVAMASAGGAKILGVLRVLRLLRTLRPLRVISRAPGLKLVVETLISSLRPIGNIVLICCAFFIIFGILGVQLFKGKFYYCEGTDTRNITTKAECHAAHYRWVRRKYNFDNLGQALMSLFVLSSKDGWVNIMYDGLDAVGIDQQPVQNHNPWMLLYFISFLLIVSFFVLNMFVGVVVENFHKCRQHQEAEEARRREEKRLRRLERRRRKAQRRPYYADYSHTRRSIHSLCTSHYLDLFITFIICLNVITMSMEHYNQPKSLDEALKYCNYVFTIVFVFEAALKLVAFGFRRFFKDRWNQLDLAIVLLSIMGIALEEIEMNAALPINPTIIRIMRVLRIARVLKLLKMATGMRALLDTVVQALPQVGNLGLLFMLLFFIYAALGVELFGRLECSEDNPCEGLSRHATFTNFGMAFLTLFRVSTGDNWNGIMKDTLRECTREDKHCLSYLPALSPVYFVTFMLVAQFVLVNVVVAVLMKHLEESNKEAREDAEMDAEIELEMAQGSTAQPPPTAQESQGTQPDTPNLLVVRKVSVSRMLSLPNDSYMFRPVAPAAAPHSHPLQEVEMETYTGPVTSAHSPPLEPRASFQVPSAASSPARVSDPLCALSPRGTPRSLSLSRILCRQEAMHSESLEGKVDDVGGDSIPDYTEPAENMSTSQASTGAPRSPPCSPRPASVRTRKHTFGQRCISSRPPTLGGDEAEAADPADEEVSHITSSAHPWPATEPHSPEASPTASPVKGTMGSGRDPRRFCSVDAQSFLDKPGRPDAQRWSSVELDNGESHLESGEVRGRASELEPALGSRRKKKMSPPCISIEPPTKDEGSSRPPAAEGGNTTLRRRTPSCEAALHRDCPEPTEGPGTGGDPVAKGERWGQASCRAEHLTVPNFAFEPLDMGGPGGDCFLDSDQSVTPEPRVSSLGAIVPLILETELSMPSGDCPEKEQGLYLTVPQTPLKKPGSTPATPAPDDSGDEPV

Sequence of UniProt O95180 (O95180 whole entry): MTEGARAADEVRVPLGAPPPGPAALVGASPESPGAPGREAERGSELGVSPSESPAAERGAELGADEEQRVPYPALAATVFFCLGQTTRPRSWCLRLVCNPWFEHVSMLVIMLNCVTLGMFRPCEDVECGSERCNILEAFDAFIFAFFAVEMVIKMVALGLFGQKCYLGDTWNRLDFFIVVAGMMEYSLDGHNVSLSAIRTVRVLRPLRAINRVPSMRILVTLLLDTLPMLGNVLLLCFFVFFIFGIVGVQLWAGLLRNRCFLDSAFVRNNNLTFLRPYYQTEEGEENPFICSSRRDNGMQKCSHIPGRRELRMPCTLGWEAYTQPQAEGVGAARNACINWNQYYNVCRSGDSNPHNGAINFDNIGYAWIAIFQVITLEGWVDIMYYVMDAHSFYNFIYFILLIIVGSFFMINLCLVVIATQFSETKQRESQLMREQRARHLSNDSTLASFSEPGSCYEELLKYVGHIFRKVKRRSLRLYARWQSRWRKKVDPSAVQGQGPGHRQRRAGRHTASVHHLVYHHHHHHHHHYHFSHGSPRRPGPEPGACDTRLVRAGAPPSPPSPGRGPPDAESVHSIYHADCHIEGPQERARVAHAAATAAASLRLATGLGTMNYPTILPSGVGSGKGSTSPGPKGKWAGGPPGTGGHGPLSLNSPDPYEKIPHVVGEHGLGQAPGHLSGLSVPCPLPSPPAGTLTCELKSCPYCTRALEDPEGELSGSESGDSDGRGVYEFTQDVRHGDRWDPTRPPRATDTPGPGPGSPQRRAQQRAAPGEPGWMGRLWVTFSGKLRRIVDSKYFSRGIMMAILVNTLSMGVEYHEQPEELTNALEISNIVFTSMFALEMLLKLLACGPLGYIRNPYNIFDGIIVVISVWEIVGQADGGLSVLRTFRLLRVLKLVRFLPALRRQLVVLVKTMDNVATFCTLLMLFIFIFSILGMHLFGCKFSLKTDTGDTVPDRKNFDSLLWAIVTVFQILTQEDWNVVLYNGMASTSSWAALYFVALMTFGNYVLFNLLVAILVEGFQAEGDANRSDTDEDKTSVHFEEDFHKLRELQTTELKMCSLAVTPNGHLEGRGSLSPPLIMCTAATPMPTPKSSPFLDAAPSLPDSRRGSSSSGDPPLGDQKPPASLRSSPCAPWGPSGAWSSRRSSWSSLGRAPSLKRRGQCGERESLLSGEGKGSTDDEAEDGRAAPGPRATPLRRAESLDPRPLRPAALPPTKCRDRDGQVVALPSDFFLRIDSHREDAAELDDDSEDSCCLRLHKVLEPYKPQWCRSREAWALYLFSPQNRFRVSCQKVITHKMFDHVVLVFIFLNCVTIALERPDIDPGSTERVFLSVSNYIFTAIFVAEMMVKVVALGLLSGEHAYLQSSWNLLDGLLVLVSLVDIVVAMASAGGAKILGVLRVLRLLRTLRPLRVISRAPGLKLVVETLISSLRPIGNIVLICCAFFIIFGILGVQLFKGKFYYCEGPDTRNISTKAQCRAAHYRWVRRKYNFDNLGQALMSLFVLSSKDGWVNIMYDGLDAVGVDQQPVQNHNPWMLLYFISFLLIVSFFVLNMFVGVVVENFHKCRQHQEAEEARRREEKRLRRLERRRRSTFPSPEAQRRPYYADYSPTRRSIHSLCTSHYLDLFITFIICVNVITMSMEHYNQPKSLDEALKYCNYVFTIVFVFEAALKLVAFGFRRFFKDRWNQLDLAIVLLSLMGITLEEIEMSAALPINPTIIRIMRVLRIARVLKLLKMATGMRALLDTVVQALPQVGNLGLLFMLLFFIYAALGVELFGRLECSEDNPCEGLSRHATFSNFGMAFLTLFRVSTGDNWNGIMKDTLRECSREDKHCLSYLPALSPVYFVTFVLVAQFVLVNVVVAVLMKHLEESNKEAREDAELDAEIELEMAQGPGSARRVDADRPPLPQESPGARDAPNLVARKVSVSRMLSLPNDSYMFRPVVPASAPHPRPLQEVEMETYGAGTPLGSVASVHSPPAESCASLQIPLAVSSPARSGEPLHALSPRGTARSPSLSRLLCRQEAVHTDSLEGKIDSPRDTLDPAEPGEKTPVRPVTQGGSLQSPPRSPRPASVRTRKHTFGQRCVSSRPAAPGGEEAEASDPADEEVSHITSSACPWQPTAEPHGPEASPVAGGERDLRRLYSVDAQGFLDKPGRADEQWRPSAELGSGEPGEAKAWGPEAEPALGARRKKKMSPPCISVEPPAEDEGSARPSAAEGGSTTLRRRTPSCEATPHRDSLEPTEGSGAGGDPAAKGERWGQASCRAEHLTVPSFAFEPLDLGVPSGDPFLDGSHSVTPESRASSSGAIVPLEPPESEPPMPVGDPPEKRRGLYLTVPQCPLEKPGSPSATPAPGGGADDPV

| Binder | Activation curves (G/Gmax), V½ [1] [mV] | Inactivation curves (I/Imax), V½ [1] [mV] | Peak T-type calcium currents, HEK3.2 cells (second institution) [1] [pA/pF] | reduction of peak Cav3.2 current density (ICa3.2), whole-cell voltage-clamp, HEK3.2 cells [1] [%] | inhibition of peak LVA ICa (pA/pF), dissociated rat DRG neurons after AAV6 injection (rat Cav3.2 (rat)) [%] | enhancement of peak LVA ICa, dissociated rat DRG neurons after AAV6 injection (rat Cav3.2 (rat)) [%] |
| --- | --- | --- | --- | --- | --- | --- |
| B1 | -56.1 | -69.8 | 20.2 | 70 | 70 |  |
| B2 |  |  |  |  |  | 30 |
| B3 |  |  |  | 40 |  |  |
| B4 | -54.1 | -64.9 | 41.1 |  |  |  |
| B5 | -54.6 | -68.8 | 11.8 | 60 | 60 |  |
